From patent US20230381281A1, “PHARMACEUTICAL COMPOSITION COMPRISING GLUCAGON/GLP-1/GIP TRIPLE AGONIST OR LONG-ACTING CONJUGATE THEREOF FOR PREVENTING OR TREATING LUPUS-RELATED DISEASES” (HANMI PHARM. CO., LTD., priority 2020, published 2023)
Bridge positions count the residues as written; N and C are the ends. Square brackets hold non-standard residues; d marks the D form. Ends that are not written are not given here. * marks the point of attachment. Acetyl(2-(4-imidazolyl)) = O=C(Cc1c[nH]cn1)*; Aib = CC(C)(N)C(=O)O

T1: human GIP receptor (human, UniProt P48546 22-466)
T1 sequence (looked up): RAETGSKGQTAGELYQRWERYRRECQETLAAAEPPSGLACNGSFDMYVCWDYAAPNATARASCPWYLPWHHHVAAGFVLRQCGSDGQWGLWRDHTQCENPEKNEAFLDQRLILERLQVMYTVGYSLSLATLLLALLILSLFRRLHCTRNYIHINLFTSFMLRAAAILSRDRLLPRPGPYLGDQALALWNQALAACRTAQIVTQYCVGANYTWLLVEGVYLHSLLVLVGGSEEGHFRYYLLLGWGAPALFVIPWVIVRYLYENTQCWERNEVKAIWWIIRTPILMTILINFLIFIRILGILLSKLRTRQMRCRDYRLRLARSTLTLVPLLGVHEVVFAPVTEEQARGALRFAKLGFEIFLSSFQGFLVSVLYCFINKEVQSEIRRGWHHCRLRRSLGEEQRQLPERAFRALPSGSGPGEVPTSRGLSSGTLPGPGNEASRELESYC

B1: Triple agonist of SEQ ID NO: 56 (peptide)
peptide: H[Aib]QGTFTSDYSKYLDEKRQKEFVNWLLAQC
modifications: bridge (positions not given here); also: ring formation between underlined amino acids, places not given here

Target: T1, human GIP receptor
Test: cell-based or functional assay

Binder | In vitro activity compared to native peptide (%) vs GIP
H[Aib]QGTFTSDYSIAMDEIHQKDFVNWLLAQC (bridge 16-20) [Triple agonist of SEQ ID NO: 55] | 2.4%
Y[Aib]QGTFTSDYSKYLDECAAKEFVQWLLDHHPSSGQPPPS (bridge 16-20) [Triple agonist of SEQ ID NO: 64] | 92.9%
{Acetyl(2-(4-imidazolyl))}-[Aib]QGTFTSDYSIAMDEIACKDFVNWLLNTK (bridge 15-19) [Triple agonist of SEQ ID NO: 61] | 2.8%
H[Aib]EGTFTSDYSIAMDEIHQKDFVDWLLAEC (bridge 16-20) [Triple agonist of SEQ ID NO: 54] | 0.1%
H[Aib]QGTFTSDVSKYLDGQAAKEFVAWLLKGC [Triple agonist of SEQ ID NO: 7] | < 0.1%
H[Aib]QGTFTSDYSKYLDEKRQKEFVQWLLNTC (bridge 16-20) [Triple agonist of SEQ ID NO: 51] | 0.1%
H[Aib]EGTFTSDYSIAMDEIHQKDFVNWLLAQC (bridge 16-20) [Triple agonist of SEQ ID NO: 53] | 1.3%
{Acetyl(2-(4-imidazolyl))}-[Aib]QGTFTSDKSKYLDERAAQDFVQWLLDGGPSSGAPPPS [Triple agonist of SEQ ID NO: 62] | < 0.1%
H[Aib]QGTFTSDVSSYLLGQQQKEFIAWLVKGGGPSSGAPPPSC [Triple agonist of SEQ ID NO: 5] | < 0.1%
{Acetyl(2-(4-imidazolyl))}-[Aib]QGTFTSDYSICMDEIHQKDFVNWLLNTK (bridge 15-19) [Triple agonist of SEQ ID NO: 49] | 3.3%
H[Aib]QGTFTSDVSSYLDGQAAKEFVAWLLKGC [Triple agonist of SEQ ID NO: 6] | < 0.1%
B1 | 0.8%
H[Aib]QGTFTSDYSIAMDEIHQKDFVNWLLNTC (bridge 16-20) [Triple agonist of SEQ ID NO: 57] | 0.3%
{Acetyl(2-(4-imidazolyl))}-[Aib]QGTFTSDYSIAMDEKHCKDFVNWLLNTK (bridge 15-19) [Triple agonist of SEQ ID NO: 60] | 18.2%
HGQGTFTSDCSKYMDGQAAQDFVAWLLAGGPSSGAPPPS [Triple agonist of SEQ ID NO: 45] | < 0.1%
HGQGTFTSDCSKYLDGQRAQDFVNWLLAGGPSSGAPPPS [Triple agonist of SEQ ID NO: 48] | < 0.1%
HGQGTFTSDCSKYLDGQRAQEFVAWLLAGGPSSGAPPPS [Triple agonist of SEQ ID NO: 47] | < 0.1%
HGQGTFTSDCSKYLDEQHAQEFVAWLLAGGPSSGAPPPS [Triple agonist of SEQ ID NO: 46] | < 0.1%
H[Aib]QGTFTSDYSKYLDEKRQKEFVQWLLDTC (bridge 16-20) [Triple agonist of SEQ ID NO: 52] | 0.3%
H[Aib]QGTFTSDYSKYLDEKRAKEFVQWLLDHHPSSGQPPPSC (bridge 16-20) [Triple agonist of SEQ ID NO: 50] | 2.7%
{Acetyl(2-(4-imidazolyl))}-[Aib]QGTFTSDCSKYLDERAAQDFVQWLLDGGPSSGAPPPS [Triple agonist of SEQ ID NO: 63] | < 0.1%
H[Aib]QGTFTSDYSKYLDEKRQKEFVQWLLNTKC (bridge 16-20) [Triple agonist of SEQ ID NO: 58] | 0.2%
{Acetyl(2-(4-imidazolyl))}-[Aib]QGTFTSDYSICMDEKHQKDFVNWLLNTK (bridge 15-19) [Triple agonist of SEQ ID NO: 59] | 4%

Target: human GLP-1 receptor (human, UniProt P43220 24-463)
Test: cell-based or functional assay

Binder | In vitro activity compared to native peptide (%) vs GLP-1
H[Aib]QGTFTSDYSIAMDEIHQKDFVNWLLAQC (bridge 16-20) [Triple agonist of SEQ ID NO: 55] | 27.1%
Y[Aib]QGTFTSDYSKYLDECAAKEFVQWLLDHHPSSGQPPPS (bridge 16-20) [Triple agonist of SEQ ID NO: 64] | 64.6%
{Acetyl(2-(4-imidazolyl))}-[Aib]QGTFTSDYSIAMDEIACKDFVNWLLNTK (bridge 15-19) [Triple agonist of SEQ ID NO: 61] | 59.8%
H[Aib]EGTFTSDYSIAMDEIHQKDFVDWLLAEC (bridge 16-20) [Triple agonist of SEQ ID NO: 54] | 30.6%
H[Aib]QGTFTSDVSKYLDGQAAKEFVAWLLKGC [Triple agonist of SEQ ID NO: 7] | 13.7%
H[Aib]QGTFTSDYSKYLDEKRQKEFVQWLLNTC (bridge 16-20) [Triple agonist of SEQ ID NO: 51] | 14.4%
H[Aib]EGTFTSDYSIAMDEIHQKDFVNWLLAQC (bridge 16-20) [Triple agonist of SEQ ID NO: 53] | 161%
{Acetyl(2-(4-imidazolyl))}-[Aib]QGTFTSDKSKYLDERAAQDFVQWLLDGGPSSGAPPPS [Triple agonist of SEQ ID NO: 62] | 5.2%
H[Aib]QGTFTSDVSSYLLGQQQKEFIAWLVKGGGPSSGAPPPSC [Triple agonist of SEQ ID NO: 5] | 42.1%
{Acetyl(2-(4-imidazolyl))}-[Aib]QGTFTSDYSICMDEIHQKDFVNWLLNTK (bridge 15-19) [Triple agonist of SEQ ID NO: 49] | 29.8%
H[Aib]QGTFTSDVSSYLDGQAAKEFVAWLLKGC [Triple agonist of SEQ ID NO: 6] | 17%
B1 | 57.9%
H[Aib]QGTFTSDYSIAMDEIHQKDFVNWLLNTC (bridge 16-20) [Triple agonist of SEQ ID NO: 57] | 11.7%
{Acetyl(2-(4-imidazolyl))}-[Aib]QGTFTSDYSIAMDEKHCKDFVNWLLNTK (bridge 15-19) [Triple agonist of SEQ ID NO: 60] | 106%
HGQGTFTSDCSKYMDGQAAQDFVAWLLAGGPSSGAPPPS [Triple agonist of SEQ ID NO: 45] | 6.6%
HGQGTFTSDCSKYLDGQRAQDFVNWLLAGGPSSGAPPPS [Triple agonist of SEQ ID NO: 48] | 1.5%
HGQGTFTSDCSKYLDGQRAQEFVAWLLAGGPSSGAPPPS [Triple agonist of SEQ ID NO: 47] | 2.4%
HGQGTFTSDCSKYLDEQHAQEFVAWLLAGGPSSGAPPPS [Triple agonist of SEQ ID NO: 46] | 1.4%
H[Aib]QGTFTSDYSKYLDEKRQKEFVQWLLDTC (bridge 16-20) [Triple agonist of SEQ ID NO: 52] | 44.1%
H[Aib]QGTFTSDYSKYLDEKRAKEFVQWLLDHHPSSGQPPPSC (bridge 16-20) [Triple agonist of SEQ ID NO: 50] | 67.4%
{Acetyl(2-(4-imidazolyl))}-[Aib]QGTFTSDCSKYLDERAAQDFVQWLLDGGPSSGAPPPS [Triple agonist of SEQ ID NO: 63] | 15.3%
H[Aib]QGTFTSDYSKYLDEKRQKEFVQWLLNTKC (bridge 16-20) [Triple agonist of SEQ ID NO: 58] | 39.1%
{Acetyl(2-(4-imidazolyl))}-[Aib]QGTFTSDYSICMDEKHQKDFVNWLLNTK (bridge 15-19) [Triple agonist of SEQ ID NO: 59] | 40.3%

Target: human GCG receptor (human, UniProt P47871 26-477)
Sequence (P47871 26-477): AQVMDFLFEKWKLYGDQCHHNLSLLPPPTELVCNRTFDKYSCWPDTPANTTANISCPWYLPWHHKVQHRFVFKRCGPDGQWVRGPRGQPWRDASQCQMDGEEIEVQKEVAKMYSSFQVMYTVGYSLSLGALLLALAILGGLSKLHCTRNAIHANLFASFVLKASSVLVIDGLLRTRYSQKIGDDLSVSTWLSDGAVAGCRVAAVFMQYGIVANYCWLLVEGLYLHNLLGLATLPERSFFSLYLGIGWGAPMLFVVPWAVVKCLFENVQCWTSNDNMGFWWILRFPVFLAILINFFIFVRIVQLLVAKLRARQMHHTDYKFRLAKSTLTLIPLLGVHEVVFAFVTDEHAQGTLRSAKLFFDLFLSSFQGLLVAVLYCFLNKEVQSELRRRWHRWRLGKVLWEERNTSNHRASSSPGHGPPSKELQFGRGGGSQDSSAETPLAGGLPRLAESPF
Test: cell-based or functional assay

Binder | In vitro activity compared to native peptide (%) vs Glucagon
H[Aib]QGTFTSDYSIAMDEIHQKDFVNWLLAQC (bridge 16-20) [Triple agonist of SEQ ID NO: 55] | 0.7%
Y[Aib]QGTFTSDYSKYLDECAAKEFVQWLLDHHPSSGQPPPS (bridge 16-20) [Triple agonist of SEQ ID NO: 64] | 60.1%
{Acetyl(2-(4-imidazolyl))}-[Aib]QGTFTSDYSIAMDEIACKDFVNWLLNTK (bridge 15-19) [Triple agonist of SEQ ID NO: 61] | < 0.1%
H[Aib]EGTFTSDYSIAMDEIHQKDFVDWLLAEC (bridge 16-20) [Triple agonist of SEQ ID NO: 54] | 1.4%
H[Aib]QGTFTSDVSKYLDGQAAKEFVAWLLKGC [Triple agonist of SEQ ID NO: 7] | < 0.1%
H[Aib]QGTFTSDYSKYLDEKRQKEFVQWLLNTC (bridge 16-20) [Triple agonist of SEQ ID NO: 51] | 2%
H[Aib]EGTFTSDYSIAMDEIHQKDFVNWLLAQC (bridge 16-20) [Triple agonist of SEQ ID NO: 53] | 8.4%
{Acetyl(2-(4-imidazolyl))}-[Aib]QGTFTSDKSKYLDERAAQDFVQWLLDGGPSSGAPPPS [Triple agonist of SEQ ID NO: 62] | < 0.1%
H[Aib]QGTFTSDVSSYLLGQQQKEFIAWLVKGGGPSSGAPPPSC [Triple agonist of SEQ ID NO: 5] | < 0.1%
{Acetyl(2-(4-imidazolyl))}-[Aib]QGTFTSDYSICMDEIHQKDFVNWLLNTK (bridge 15-19) [Triple agonist of SEQ ID NO: 49] | < 0.1%
H[Aib]QGTFTSDVSSYLDGQAAKEFVAWLLKGC [Triple agonist of SEQ ID NO: 6] | < 0.1%
B1 | 4.9%
H[Aib]QGTFTSDYSIAMDEIHQKDFVNWLLNTC (bridge 16-20) [Triple agonist of SEQ ID NO: 57] | < 0.1%
{Acetyl(2-(4-imidazolyl))}-[Aib]QGTFTSDYSIAMDEKHCKDFVNWLLNTK (bridge 15-19) [Triple agonist of SEQ ID NO: 60] | < 0.1%
HGQGTFTSDCSKYMDGQAAQDFVAWLLAGGPSSGAPPPS [Triple agonist of SEQ ID NO: 45] | < 0.1%
HGQGTFTSDCSKYLDGQRAQDFVNWLLAGGPSSGAPPPS [Triple agonist of SEQ ID NO: 48] | < 0.1%
HGQGTFTSDCSKYLDGQRAQEFVAWLLAGGPSSGAPPPS [Triple agonist of SEQ ID NO: 47] | < 0.1%
HGQGTFTSDCSKYLDEQHAQEFVAWLLAGGPSSGAPPPS [Triple agonist of SEQ ID NO: 46] | < 0.1%
H[Aib]QGTFTSDYSKYLDEKRQKEFVQWLLDTC (bridge 16-20) [Triple agonist of SEQ ID NO: 52] | 7.5%
H[Aib]QGTFTSDYSKYLDEKRAKEFVQWLLDHHPSSGQPPPSC (bridge 16-20) [Triple agonist of SEQ ID NO: 50] | 50.5%
{Acetyl(2-(4-imidazolyl))}-[Aib]QGTFTSDCSKYLDERAAQDFVQWLLDGGPSSGAPPPS [Triple agonist of SEQ ID NO: 63] | < 0.1%
H[Aib]QGTFTSDYSKYLDEKRQKEFVQWLLNTKC (bridge 16-20) [Triple agonist of SEQ ID NO: 58] | 2.6%
{Acetyl(2-(4-imidazolyl))}-[Aib]QGTFTSDYSICMDEKHQKDFVNWLLNTK (bridge 15-19) [Triple agonist of SEQ ID NO: 59] | < 0.1%
